Reference: the nanobody polyreactivity screen of Harvey et al. (2022)

Assay: yeast display, Sf9 membrane polyspecificity reagent, FACS + sequencing; frameworks hold sequencing errors
How it was run: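 Genes from sorted yeast were amplified by colony PCR, read by MiSeq 2 × 250 sequencing and filtered on CDR length. These cells carried a synthetic nanobody library in Saccharomyces cerevisiae BJ5465 and were sorted by FACS into low and high (top ~1%) gates on anti-HA and streptavidin fluorescence. Polyreactivity is labelled according to the gate of origin.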

| Sequence | polyreactivity (PSR sort gate) |
| --- | --- |
| QVQLVESGGGLVQAGGSLRLSCASSGLIFSIYAMGWYRQAPGKERELVAAIRWSGGSTYYADSVKGRFTISRDNAKNTVYLQMNSLKPEDTAVYYCNADITVYVRIYQYNYCGQGTQVTVSS | low polyreactivity |
| QVQLVESGGGLVQAGGSLRLSCASSGLIFYKNAMGWYRQAPGKVRELVAAISWRDGRTYYADSVKGRFTISRDNAKNTVYLQMNSLKPEDTAVYYCNAVRGITYYDYFYWGQGTQVTVSS | high polyreactivity |
| QVQLVESGGGLVQAGGSLRLSCASSGLTFKQYAMVWYRQAPGKERELVAAITVSGGDTYYADSVKGRFTISRDNAKNTVYLQMNSLKPEDTAVYYCAAEHFFWGYDYWGQGTQVTVSS | high polyreactivity |
| QVQLVESGGGLVQAGGSLRLSCASSGLTFRYNAMGWYRQAPGKERELVAAIRTSGGSTYYADSVKGRFTISRDNAKNTVYLQMNSLKPEDTAVYYCAARSKSYYGGYARGYWGQGTQVTVSS | high polyreactivity |
| QVQLVESGGGLVQAGGSLRLSCASSGNTFTVNAMGWYRQAPGKERELVAAINYSGGSTYYADSVKGRFTISRDNAKNTVYLQMNSLKPEDTAVYYCAASPDELLYEMYYWGQGTQVTVSS | low polyreactivity |
| QVQLVESGGGLVQAGGSLRLSCASSGNTFYGYAMGWYRQAPGKERELVASITLSGDSTYYADSVKGRFTISRDNAKNTVYLQMNSLKPEDTAVYYCAGVYTYPLGYYHYTYDYWGQGTQVTVSS | low polyreactivity |
| QVQLVESGGGLVQAGGSLRLSCASSGRIFKYYSMGCYRQSPGKVRELVASISWSGGSTYYADSVKGRFTISRDNAKNTVYLQMNSLKPEDTAVYYCAAYVTYLRYRSNIAYYGYDYWGQGTQVTVSS | high polyreactivity |
| QVQLVESGGGLVQAGGSLRLSCASSGRIFRYYDMGWYRQAPGKERELVASITSGGSTNYADSVKGRFTISRDNAKNTVYLQMNSLKPEDTAVYYCAARWGYARANGYDYWGQGTQVTVSS | high polyreactivity |
| QVQLVESGGGLVQAGGSLRLSCASSGRTFAGNVMGWYRQAPGKERELVAAITGRGGSTYYADSVKGRFTISRDNAKNTVYLQMNSLKPEDTAVYYCNALTWPRYYYWGQGTQVTVSS | high polyreactivity |
| QVQLVESGGGLVQAGGSLRLSCASSGRTFALYAMGWYRKAPGKERELVAGITFRGGSTYYADSVKGRFTISRDNAKKTVYLQMISQKPEDNAVYYCAAERWRWYYSWNMDYWGQCTQVTVSS | high polyreactivity |
| QVQLVESGGGLVQAGGSLRLSCASSGRTFLHNAMGWYRQAPGKERELVAAISSRGGSTYYADSVKGRFTISRDNAKNTVYLQMNSLKPEDTAVYYCAADLVVYRYDYWGQGTQVTVSS | high polyreactivity |
| QVQLVESGGGLVQAGGSLRLSCASSGRTFPGNAMGWYRQAPGKERELVATISSGGTTNYADSVKGRFTISRDNAKNTVYLQMNSLKPDDTAFYYCATDTYHHKADYEYWGQGTQVTLSS | low polyreactivity |
| QVQLVESGGGLVQAGGSLRLSCASSGRTFTKYAMGWYRHPPGKESELVAAISRSGGSTYYADSVKGRFTISRDNAKNTVYLQMNSLKPEDTAVYYWAARGQYRYSFGDYSWGQGTQVTVSS | high polyreactivity |
| QVQLVESGGGLVQAGGSLRLSCASSGRTLGGYAMGWYRQAPGKERELVAAITRRGGSTYYADSVKGRFTISRDNAKNTVYLLMNSLKTEDTAVYYCAARWYARSLTRFNYWGEGTQVTVSS | high polyreactivity |
| QVQLVESGGGLVQAGGSLRLSCASSGSIFVLNAMGWYRQAPVKESELVAGITYSGGSTYYADSVKGRFTISRDNAKNTVYLQMNSLKPEDTAVYYWSAPVRRYPYPGRFYYWGQGTQVTVSS | low polyreactivity |
| QVQLVESGGGLVQAGGSLRLSCASSGSIFYPYAMGWYRPAPGKERELVAAISSGGTTYYADSVKGRFTISRDNAKNTVYLQMNSLKPEDTAVYYCAAGFYLRAVWMDYWGQGTQVTVSS | high polyreactivity |
| QVQLVESGGGLVQAGGSLRLSCASSGSIFYYTEIGWYRQAPGKERELVAAISWGDGITYYADSVKGRFTISRDYAKNTVSLLMNSLKPEDTAFYYCAVDYYYLPFDYWGQGTQGTVSS | high polyreactivity |
| QVQLVESGGGLVQAGGSLRLSCASSGSISYYAMGWYRQAPGKERELVAAISSGGSTYYADSVKGRFTISRDNAKNTVYLQMNSLKPEDTAVYYCAVRYIIRGYATRYYYWGQGTQVTVSS | high polyreactivity |
| QVQLVESGGGLVQAGGSLRLSCASSGSTFAQNTMGWYRQAPRKERELVATISDGGGSTYYADSVKGRFTISRDNAKNTVYLQMNSLKPEDTAVYYCNTDRFWPSDYWGQGTQVTVSS | low polyreactivity |
| QVQLVESGGGLVQAGGSLRLSCASSGSTFFLNAMGWYRQAPGKEREFVAAISYTSTSTYYADSVKGRFTISRDNAKNTVYLQMNSLKPEDTAVYYCAVDAAGWYYTVETGDYAEDYWGQGTQVTVSS | low polyreactivity |
| QVQLVESGGGLVQAGGSLRLSCASSGSTFPRNAMGWYRQAPGKERELVAAITRSGANTHYADSVKGRFTISRDNAKNTVYLQMNSLKPEDTAVYYCAARSFTAYLGYYWGQGTQVTVSS | high polyreactivity |
| QVQLVESGGGLVQAGGSLRLSCASSGSTFRYYAMGWYRPPPGKEREWVAVITSGGSTYYADSVKGRFTISRDNAKNTVSLQMNSLKPEDTAVDYCAAVYAFYVDFDYWGQGTQVTVSS | low polyreactivity |
| QVQLVESGGGLVQAGGSLRLSCASSGSTFSPNAMGWYRQAPGKERELVAAITYRGANTYYADSVKGRFTISRDNAKNTVYLQMNSLKPEDTAVYYCAAEYAYHHVGFGYWGQGTQVTVSS | low polyreactivity |
| QVQLVESGGGLVQAGGSLRLSCASSGSTIYPNAMGWYRQAPGKERELVARISRTGGSTYADSVKGRFTISRDNAKNTVYLQMNSLKPEDTAVYYCARSYASFSWLRTKEPYEYWGQGTQVTVSS | low polyreactivity |
| QVQLVESGGGLVQAGGSLRLSCASSGSTIYYNAMGWYRQAPGKERELVAAISNAGSTYYADSVKGRFTISRDNAENTVYLQMNSLKPEDTAVYYCAKRFRGITYSYYYWGQGTQVTVSS | high polyreactivity |
| QVQLVESGGGLVQAGGSLRLSCASSGSTLRSYAMGWYRQAPGKERELVAAIDWDGGRTYYADSVKGRFTISRDNAKNTVYIQMNSLKPEDTAVYYCNTSAGWSNGKDEGDFYSGFDYWVQGTQVTVSS | low polyreactivity |
| QVQLVESGGGLVQAGGSLRLSCASSGYIFAGNAMGWYRQAPGKERELVAVITRGGRTYYADSVKGRFTISRDNAKNTVYLQMNSLKPEDTAVYYCAARYPYRGWGQGTQVTVSS | high polyreactivity |
| QVQLVESGGGLVQAGGSLRLSCASSGYTFTIYAMGWYRQAPGKERELVAAITGRGGRTNYADSVKGRFTISRDNAKNTVYLQIYRLIPVDTAVYYCNAVTKVVYHGPYGYDYWGQGTQVTVSS | high polyreactivity |
| QVQLVESGGGLVQAGGSLRLSCATSGGTLVANAMGWSSQPPGKESEFVAVITLTAGSTSYADSVKGRLTISRDNAKNTVYLQMNSLKPEDTAVYYCNVDVYNVYNSYPYYYWGQGTQVTVSS | low polyreactivity |
| QVQLVESGGGLVQAGGSLRLSCATSGSTSYPYAMGWYRQAPGKERELVAAISTSGSTTYYADSVKVRFTLSRDNAKKTVYLQMNSLKPEDTAVYYCAKGVNFSQYPFSAYGDGGRYDYWGQGTQVTVSS | low polyreactivity |
